Measurements: patent US6528620B1, “Sid-polyamide fusions: a potent method of regulating gene expression” (University of Utah Research Foundation, priority 1999, dated 2003)
Where no end group is shown, it is not given here.

Columns and labels:
[1] = biological target: VP16PAH2 (amino acids 251-404 of mSin3A encoding the PAH2 domain fused to the VP16 activation domain) (UniProt Q60520); assay: directed yeast two-hybrid assay (LexA-SID with VP16PAH2, beta-galactosidase)
PAH2 domain of mSin3A = biological target: T1, PAH2 domain of mSin3A (Mus musculus, UniProt Q60520); assay: Directed two-hybrid assay (LexA-SID fusions with VP16PAH2, quantitative β-galactosidase); assay type: cell-based; conditions: for affinity for PAH2 relative to wild-type SID 8-20: fold higher; for interaction with PAH2 (relative β-galactosidase activity): LexA fusion with VP16PAH2 in S. cerevisiae strain L40
T1 construct: expressed in transfected cells; host or cells: S. cerevisiae strain L40
T1 sequence (Q60520 251-404): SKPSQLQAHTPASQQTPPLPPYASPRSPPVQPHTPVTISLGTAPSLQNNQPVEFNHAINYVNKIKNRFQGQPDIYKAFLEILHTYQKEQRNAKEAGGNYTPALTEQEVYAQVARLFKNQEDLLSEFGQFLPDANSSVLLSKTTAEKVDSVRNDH
Excerpt: Cloning and Interaction Assays—Fusions to the LexA DNA binding domain were made either by polymerase chain reaction amplifying SID 1-57 and SID 1-27 using pSPMad1 or pSPMad1 (L12P/A16P) (Ayer et al., Cell 80:767-776 (1995)) as template or by inserting a double-stranded oligonucleotide cassette encoding the various SID constructs between the EcoRI and BamH1 sites of pBTM116. Hollenberg et al., Mol. Cell. Biol. 15:3813-3822 (1995). Each construct was verified by sequencing. The different LexA fusion constructs and VP16PAH2 (Ayer et al., Cell 80:767-776 (1995)) were introduced into the S. cerevisiae strain L40 by lithium acetate transformation. Ausubel et al. eds., Current Protocols in Molecular Biology, John Wiley & Sons, Inc., New York (1995). Quantitative β-galactosidase assays were performed from three independent colonies in triplicate from liquid cultures. Ausubel et al. eds., Current Protocols in Molecular Biology, John Wiley & Sons, Inc., New York (1995). For each measurement the standard deviation was less than 10%.
We have used a directed two-hybrid assay to measure the relative affinity of the SID and various SID mutants for PAH2. Briefly, SID molecules based on the sequence of human Mad1 were fused to the DNA binding domain of bacterial LexA, and the PAH2 domain of mSin3A was fused to the transcriptional activation domain of VP16. Following introduction into the S. cerevisiae strain L40, relative affinity was measured by quantitative analysis of the β-galactosidase activity generated from an integrated LexA-dependent LacZ reporter gene.

[2] = Circular dichroism (CD) spectroscopy of SID peptides in TFE; assay type: physicochemical; conditions: for ability to adopt α-helical structure in TFE: increasing TFE concentrations (1, 20, 50%); for α-helical content: 50 μM peptide, 25° C.
Procedure: Circular Dichroism (CD) Spectroscopy—CD samples contained 50 μM of peptide, 1×phosphate-buffered saline, and the percentage of trifluoroethanol (TFE, Sigma) indicated in FIG. 4. CD spectra were collected on an Aviv 62DS spectrophotometer from 280 to 195 nm at 25° C. using a cell with a 0.1-cm pathlength. The reported spectra are the average of 15 consecutive runs. The observed ellipticity was converted to mean residue molar ellipticity [Θ] (deg cm^2 dmol^−1) using the relationship [Θ]=Θ/(Cr 1) where Θ is the observed ellipticity, 1 is the pathlength, and Cr is the mean residue molar concentration. Fractional helicities were calculated as described using values for [Θ]^0222 and [Θ]^100222, corresponding to 0% and 100% helical content at 222 nm, of −2000 and −28,400 deg cm^2 dmol^−1, respectively. Wu et al., Biochemistry 20:5766-570 (1981).
To test directly if the SID could adopt an α-helical structure, we measured the helical content of wild-type SID and mutant SID peptides using circular dichroism (CD) spectroscopy. […] Therefore, spectra for the wild-type and mutant SID peptides were measured in the solvent TFE, which is commonly used to stabilize α-helical conformation in peptides that have an inherent helical propensity. Sonnichsen et al., Biochemistry 31 :8790-8798 (1992), Jasanoff and Fersht, Biochemistry 33:2129-2135 (1994). […] At increasing TFE concentrations, the wild-type peptide adopts an α-helical structure as indicated by the strong negative peaks at 208 and 222 nm. In 20% TFE the SID is approximately 40% α-helical. This percentage increases to approximately 60% in 50% TFE.

Molecule: LexA fused to SID 8-20 E14A (from UniProt P0A7C2 1-202)
- fold higher affinity than wild-type SID 8-20 (relative beta-galactosidase activity) [1]: 2 fold

Molecule: QLOR: minimal thirteen amino acid SID (8-20) with mutation at Gln-10, LexA fusion (NIRMLLEAADYLE; also: LexA fusion; UniProt Q05195 8-20, looked up, variant Q10R)
- reduction of binding to PAH2 relative to wild-type SID 8-20 (PAH2 domain of mSin3A; yeast strain L40, fold reduced): 4 fold

Molecule: Q10A: minimal SID 8-20 with single mutation Q10A, LexA fusion (NIAMLLEAADYLE; also: LexA fusion; UniProt Q05195 8-20, looked up, variant Q10A)
- affinity for PAH2 relative to wild-type SID 8-20 (PAH2 domain of mSin3A; yeast strain L40): approximately 2 fold

Molecule: D17A: minimal SID 8-20 with single mutation D17A, LexA fusion (NIQMLLEAAAYLE; also: LexA fusion; UniProt Q05195 8-20, looked up, variant D17A)
- affinity for PAH2 relative to wild-type SID 8-20 (PAH2 domain of mSin3A; yeast strain L40): approximately 2 fold

Molecule: LexA fused to SID 8-20 Q10A/E14A/D17A (from UniProt P0A7C2 1-202)
- fold better binding than wild-type SID [1]: 2 fold

Molecule: GGGMNIQMLLEAADYDE [L19D SID, same mutation also tested as LexA-SID 8-20 fusion]
- interaction with PAH2 (relative β-galactosidase activity) (PAH2 domain of mSin3A): unable to interact with PAH2
- interaction with PAH2 (relative β-galactosidase activity) (PAH2 domain of mSin3A; listed as L19D): fails to interact with PAH2
- interaction with PAH2 (relative β-galactosidase activity) (PAH2 domain of mSin3A; listed as Leu-19): severely impaired binding
- CD spectrum / helicity compared with wild-type SID ([2]; 50% TFE): nearly identical to that collected for the wild-type SID
- reduction of helicity relative to wild-type ([2]; 50% TFE): ~5%
- ability to adopt α-helical structure in TFE [2]: retain helical structure
- ability to adopt α-helical structure in TFE ([2]; listed as L19D): retains helical structure

Molecule: Tyr-18: minimal SID 8-20 with Tyr-18 mutated to aspartic acid, LexA fusion (NIQMLLEAADDLE; also: LexA fusion; UniProt Q05195 8-20, looked up, variant Y18D)
- interaction with PAH2 (relative β-galactosidase activity) (PAH2 domain of mSin3A): severely impaired binding

Molecule: Q10A/E14A/D17A: minimal SID 8-20 containing all three alanine mutations, LexA fusion (NIAMLLAAAAYLE; also: LexA fusion; UniProt Q05195 8-20, looked up, variant Q10A E14A D17A)
- affinity for PAH2 relative to wild-type SID 8-20 (PAH2 domain of mSin3A; yeast strain L40): two-fold

Molecule: LexA fused to SID 8-20 Q10R (from UniProt P0A7C2 1-202)
- fold reduction of binding against wild-type SID 8-20 (relative beta-galactosidase activity) [1]: 4 fold

Molecule: LexA fused to SID 8-20 Q10A (from UniProt P0A7C2 1-202)
- fold higher affinity than wild-type SID 8-20 (relative beta-galactosidase activity) [1]: 2 fold

Molecule: LexA fused to SID 8-20 D17A (from UniProt P0A7C2 1-202)
- fold higher affinity than wild-type SID 8-20 (relative beta-galactosidase activity) [1]: 2 fold

Molecule: GGGMNIQMLLEAADYLE [wild-type SID peptide]
- α-helical content ([2]; 20% TFE): approximately 40%
- α-helical content ([2]; 50% TFE): approximately 60%
- secondary structure ([2]; aqueous solution containing 1% TFE): lacks secondary structure
- ability to adopt α-helical structure in TFE [2]: able to adopt an α-helical conformation

Molecule: E14A: minimal SID 8-20 with single mutation E14A, LexA fusion (NIQMLLAAADYLE; also: LexA fusion; UniProt Q05195 8-20, looked up, variant E14A)
- affinity for PAH2 relative to wild-type SID 8-20 (PAH2 domain of mSin3A; yeast strain L40): approximately 2 fold

Molecule: GGGMNIQMPLEAPDYLE [L12P/A16P SID, same mutation also tested as LexA fusion in two-hybrid]
- interaction with PAH2 (relative β-galactosidase activity) (PAH2 domain of mSin3A): fails to interact with PAH2
- interaction with PAH2 (relative β-galactosidase activity) (PAH2 domain of mSin3A; listed as L12P/A16P): failed to interact with PAH2
- ability to adopt α-helical structure in TFE [2]: cannot adopt an α-helical structure
- ability to adopt α-helical structure in TFE ([2]; listed as L12P/A16P): remained unchanged with increasing concentrations of TFE
- ability to adopt α-helical structure in TFE ([2]; listed as double proline mutant SID peptide): incapable of α-helix formation

Molecule: GGGMNIQMLLEDADYLE [A15D SID, same mutation also tested as LexA-SID 8-20 fusion]
- interaction with PAH2 (relative β-galactosidase activity) (PAH2 domain of mSin3A): unable to interact with PAH2
- interaction with PAH2 (relative β-galactosidase activity) (PAH2 domain of mSin3A; listed as A15E): fails to interact with PAH2
- interaction with PAH2 (relative β-galactosidase activity) (PAH2 domain of mSin3A; listed as Ala-15): severely impaired binding
- CD spectrum / helicity compared with wild-type SID ([2]; 50% TFE): slightly less helical than the wild-type SID
- reduction of helicity relative to wild-type ([2]; 50% TFE): approximately 40%
- ability to adopt α-helical structure in TFE [2]: retain helical structure
- ability to adopt α-helical structure in TFE ([2]; listed as A15E): retains helical structure

B1: NIQMLLEAADYLE (protein)
chain: MKALTARQQEVFDLIRDHISQTGMPPTRAEIAQRLGFRSPNAAEEHLKALARKGVIEIVSGASRGIRLLQEEEEGLPLVGRVAAGEPLLAQQHIEGHYQVDPSLFKPNADFLLRVSGMSMKDIGIMDGDLLAVHKTQDVRNGQVVVARIDDEVTVKRLKKQGNKVELLPENSEFKPIVVDLRQQSFTIEGLAVGVIRNGDWLNIQMLLEAADYLE
- interaction with PAH2 (relative β-galactosidase activity) (PAH2 domain of mSin3A): necessary and sufficient for interaction

B2: SID 1-57: LexA DNA binding domain fused to amino acids 1-57 of Mad1 (protein)
chain: MKALTARQQEVFDLIRDHISQTGMPPTRAEIAQRLGFRSPNAAEEHLKALARKGVIEIVSGASRGIRLLQEEEEGLPLVGRVAAGEPLLAQQHIEGHYQVDPSLFKPNADFLLRVSGMSMKDIGIMDGDLLAVHKTQDVRNGQVVVARIDDEVTVKRLKKQGNKVELLPENSEFKPIVVDLRQQSFTIEGLAVGVIRNGDWLMAAAVRMNIQMLLEAADYLERREREAEHGYASMLPYNNKDRDALKRRNKSKKNNSSS
- interaction with PAH2 (relative β-galactosidase activity) (PAH2 domain of mSin3A): sufficient for interaction
